In this experiment the target is TRCP VLP. The experiment can be described thus: titration, native agarose gel mobility shift.

B1: Nb23 fused to EGFP (VHH)
VHH: QVQLQESGGGSVQVGGSLRVACAASGDTFSGYLAAWFRQAPGKGREGVAAINSKRHTTSYADSVKGRFTISKDNADNIMYLEMNSLKPEDTAIYYCAAADAIGLAEYWSTPTLSAARYKYWGQGTQVTVSS
Regarding B1, the “molecular ratio between GFLV CP and Nb23:GFP at maximum mobility shift” value is ~1 Nb23:GFP per CP.

Values taken from US20180265552A1 (INSTITUT NATIONAL DE LA RECHERCHE AGRONOMIQUE, published 2018).
